This note sets out measurements from PMC6954417.

Data set [1] addresses His6-RAD52;DSS1 (Homo sapiens;Homo sapiens) (UniProt P43351+P60896). Put plainly: competition (FRET). The note with it: 8 nM RAD52-DSS1 on 1 nM Cy3-dT30-Cy5; ssDNA EMSA: 30 mM Tris-acetate pH 7.5, 1 mM DTT, RT, 0.1% glutaraldehyde; FRET: same buffer + 0.1 mg/ml BSA, 25 C; dsDNA EMSA: 30 mM KPi pH 7.4, 1 mM DTT …; scale: nM base pairs for almost complete ssDNA release. In general terms: Mobility shift assays separate free from complexed probe on a gel.

Data set [2] addresses T1, His6-RAD52 (Homo sapiens) (UniProt P43351).
T1 sequence: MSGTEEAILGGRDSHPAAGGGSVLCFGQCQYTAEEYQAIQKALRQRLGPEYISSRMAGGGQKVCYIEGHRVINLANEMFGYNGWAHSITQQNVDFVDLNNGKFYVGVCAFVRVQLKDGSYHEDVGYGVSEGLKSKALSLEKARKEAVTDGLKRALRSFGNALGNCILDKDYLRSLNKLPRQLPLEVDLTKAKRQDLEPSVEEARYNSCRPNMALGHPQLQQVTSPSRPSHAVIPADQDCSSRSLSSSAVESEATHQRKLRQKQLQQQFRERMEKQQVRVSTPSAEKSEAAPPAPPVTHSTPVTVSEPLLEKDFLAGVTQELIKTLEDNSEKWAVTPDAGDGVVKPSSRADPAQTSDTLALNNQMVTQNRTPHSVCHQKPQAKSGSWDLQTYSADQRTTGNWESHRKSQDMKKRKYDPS
Put plainly: competition (FRET). The note with it: 8 nM RAD52 on 1 nM Cy3-dT30-Cy5; ssDNA EMSA: 30 mM Tris-acetate pH 7.5, 1 mM DTT, RT, 0.1% glutaraldehyde; FRET: same buffer + 0.1 mg/ml BSA, 25 C; dsDNA EMSA: 30 mM KPi pH 7.4, 1 mM DTT …; scale: nM base pairs for nearly complete ssDNA release.

For data set [3], the target named is RAD52 (human) (UniProt P43351).
Data set [4] concerns the target RAD52 (human) (UniProt P43351). The source holds these as a separate data set.
Data set [5] has as its target RAD52 (human) (UniProt P43351). This is another data set of the same source.

His6-RAD52;DSS1 (Homo sapiens;Homo sapiens), sequence (P60896 whole entry, one chain of several): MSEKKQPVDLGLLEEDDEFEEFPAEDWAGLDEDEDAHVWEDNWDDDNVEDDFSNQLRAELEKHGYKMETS

For PhiX174 RF I DNA, ApaLI-linearized, the binding signal in data set [1] stood at 50; in data set [2], 200.
DSS1 (natural protein): the FRET-based annealing of complementary 28-mers, 8 nM RAD52 with 40 nM DSS1, no RPA: initial rate (RAD52 alone 5.2 bp/s) with RAD52 (human) [3] was 17.5 bp/s. Further, the D-loop formation with a 90-mer ssDNA and supercoiled plasmid, RAD52 or RAD52-DSS1 (1:1) at 150-3200 nM: yield (10% for RAD52 alone at 800 nM) with RAD52 (human) [4] is 20%. In the data set with RAD52 (human) [5], this substance returned a gel-based single-strand annealing of 3'-overhang substrates, increasing RAD52 or pre-formed RAD52-DSS1 (1:1): maximum yield (optimum at 120 nM complex against 480 nM RAD52 alone) of 65%.
